Measurements reported in publication PMC11088704, “Structural basis for the regulation of plant transcription factor WRKY33 by the VQ protein SIB1” (Communications Biology, 2024).

Key:
[1] = target: WRKY33_C;SIB1 (SIB1 11-100) (Arabidopsis thaliana;Arabidopsis …, UniProt Q8S8P5;Q9LDH1 345-422;11-100, |); test: EMSA; SIB1:WRKY33_C 2:1; ternary complex; Kd not fittable; EMSA: NMR buffer (composition not given in material) with 100 mM NaCl, 1.0 ng dsDNA in 20 ul, room temperature 20 min, SIB1:WRKY33_C 2:1; gel in 0.5x TBE, GelRed stain; details: protein: recombinant;recombinant; tags: C-terminal 6xHis;C-terminal 6xHis; copies: 1;1; blunt
Sequence of WRKY33_C;SIB1 (SIB1 11-100) (Q8S8P5 345-422, chain 1 of 2): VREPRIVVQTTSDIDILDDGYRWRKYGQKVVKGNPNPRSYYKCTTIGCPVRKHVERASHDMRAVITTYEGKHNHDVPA
Sequence of WRKY33_C;SIB1 (SIB1 11-100) (Q9LDH1 11-100, chain 2 of 2): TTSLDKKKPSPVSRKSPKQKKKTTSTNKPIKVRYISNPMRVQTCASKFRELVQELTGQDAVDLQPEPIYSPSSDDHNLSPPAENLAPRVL

WRKY33_C;SIB1mini = WRKY33_C;SIB1mini (Arabidopsis thaliana;Arabidopsis …, UniProt Q8S8P5;Q9LDH1 345-422;46-69, |); test: EMSA; SIB1mini present; Kd not fittable; EMSA: NMR buffer (composition not given in material) with 100 mM NaCl, 1.0 ng dsDNA in 20 ul, room temperature 20 min, SIB1:WRKY33_C 2:1; gel in 0.5x TBE, GelRed stain; details: tags: C-terminal 6xHis;; copies: 1;1; blunt
Sequence of WRKY33_C;SIB1mini (Q8S8P5 345-422, chain 1 of 2): as the sequence (Q8S8P5 345-422, chain 1 of 2) above
Sequence of WRKY33_C;SIB1mini (Q9LDH1 46-69, chain 2 of 2): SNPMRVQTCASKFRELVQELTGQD

B1: W-box DNA (dsDNA)
DNA 1: AAAGTTGACCAA
DNA 2: TTGGTCAACTTT
With B1 the binding signal [1] was ~95 % DNA bound at 1:1 molar ratio (WRKY33_C alone ~80%) and the binding signal (WRKY33_C;SIB1mini) was ~95 % DNA bound at 1:1 molar ratio (WRKY33 alone ~80%).
